Assay [1] concerns the target T1, PEc fragment aa 1-12 (human).
T1 peptide: YQPPSTNKNTKS
Kind of assay: dot blot on nitrocellulose.

Assay [2] addresses T2, human Ec peptide (PEc), whole, 24 amino acids (human).
T2 construct: also called human PEc; whole PEc
T2 peptide: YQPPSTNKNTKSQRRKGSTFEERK
Kind of assay: dot blot, peptide on nitrocellulose, 2.5 µg/mL MAb.

In assay [3] the target is T3, PEc fragment aa 13-24 (human).
T3 construct: also called the last 12 amino acids
T3 peptide: QRRKGSTFEERK
Nature of the assay: dot blot, peptide on nitrocellulose, 2.5 µg/mL MAb.

B1: anti-PEc monoclonal antibody (MAb) of Example 1 (antibody, mouse IgG1, kappa, V domains shown)
VH: EVQLQQSGAELVRSGASVKLSCAASGFNLKDYYIHWVKQRPEQGLEWIGWIDPENGDTEYAPKFQGRATMTADTSSNTAYLHLSSLTSEDTAVYYCFANDVDCWGQGTTLTVSS
VL: DVVMTQPPLSLPVSLGDQASISCRSSQSLVHSNGKTYLHWYLQKPGQSPKLLIYKLSNRFSGVPDRFSGSGSGTDFTLKISRVEAEDLGVYFCFQSTHIPYTFGGGSKLEIRR
notes: Obtained from a mouse hybridoma, then expressed recombinantly in CHO cells; Called an IgG MAb; captured with anti-mouse Fc and detected with anti-mouse HRP; also called anti-PEc MAb; anti PEc MAb
Consider B1, for which the binding result in assay [1] is given as “no binding”; in assay [2] it was “binds”; in assay [3] it was “binds”.

The values above are taken from EP4635986A1 (National and Kapodistrian University of Athens, dated 2025).
